Measurements reported in patent US20060171977A1, “Methods for the identification of fungicidally active compounds based on thymidylate kinase” (priority 2004, published 2006).

Columns and labels:
[1] = substrate: Cc1cn([C@H]2C[C@H](O)[C@@H](COP(=O)(O)O)O2)c(=O)[nH]c1=O; experiment: KM determination of thymidylate kinase substrates (coupled PK/LDH assay, Lineweaver-Burk plot); format: biochemical, Saccharomyces cerevisiae; conditions: other: substrate of thymidylate kinase from yeast; FIG. 5
Protocol: (§1) FIG. 4: Graphical illustration of the kinetics of conversion of thymidylate and ATP by various concentration of thymidylate kinase in the assay. In an assay volume of 50 μl, 500 μM thymidylate, 500 μM ATP, 300 μM NADH, 400 μM PEP (phosphoenol pyruvate), 0.1 U pyruvate kinase and 0.1 U lactate dehydrogenase were employed. The conversion occurred on the basis of a decrease in absorption at 340 nm due to the reaction of the released ADP with PEP and NADH to form lactate and NAD.
(§2) FIG. 5: Lineweaver-Burk plot for determination of the KM value of dTMP (A) and ATP (B). The measured values are illustrated according to Lineweaver and Burk, i.e. 1/Vo=1/Vmax+1/S×(KM/Vmax), where Vo is the original reaction speed, Vmax is the maximum attainable reaction speed and S is the substrate concentration. Vmax and KM can then be calculated as the intercepts on the vertical axis and horizontal axis, 1/V and 1/KM. The KM value for dTMP is 0.17 mM […], the KM value for ATP is 0.16 mM […].
(§3) A preferred method (see Example 3) makes use of the fact that an adenosine diphosphate molecule (ADP) is released during the thymidylate kinase reaction. The activity, or the increase or decrease in activity, of the polypeptide according to the invention can thus be determined via detection of the resulting ADP. […]

[2] = substrate: Nc1ncnc2c1ncn2[C@@H]1O[C@H](COP(=O)(O)OP(=O)(O)OP(=O)(O)O)[C@@H](O)[C@H]1O; experiment: as above; format: biochemical, Saccharomyces cerevisiae; conditions: other: substrate of thymidylate kinase from yeast; FIG. 5
Protocol: as §1, §2, §3

B1: thymidylate kinase from yeast (Saccharomyces cerevisiae S288C) (protein)
chain: MMGRGKLILIEGLDRTGKTTQCNILYKKLQPNCKLLKFPERSTRIGGLINEYLTDDSFQLSDQAIHLLFSANRWEIVDKIKKDLLEGKNIVMDRYVYSGVAYSAAKGTNGMDLDWCLQPDVGLLKPDLTLFLSTQDVDNNAEKSGFGDERYETVKFQEKVKQTFMKLLDKEIRKGDESITIVDVTNKGIQEVEALIWQIVEPVLSTHIDHDKFSFF
notes: His6 (with pDest17 vector linker) (N); made in house; host or cells: E. coli BL21(DE3)pLysS
Km [1]: 170 µM | Km [2]: 160 µM
